The supplement of paper PMC10065799, “High-throughput profiling of sequence recognition by tyrosine kinases and SH2 domains using bacterial peptide display” (eLife, 2023)

Key:
[1] = system: AncSZ; assay: phosphorylation enrichment, bacterial display (enrichment ratio); higher = better substrate or ligand; peptides without Tyr show the background
[2] = biological target: EPHB1 (UniProt P54762); assay: as above
[3] = biological target: EPHB2 (UniProt P29323); assay: as above
[4] = biological target: FGFR1 (UniProt P11362); assay: as above
Chain of FGFR1 (P11362 whole entry, looked up): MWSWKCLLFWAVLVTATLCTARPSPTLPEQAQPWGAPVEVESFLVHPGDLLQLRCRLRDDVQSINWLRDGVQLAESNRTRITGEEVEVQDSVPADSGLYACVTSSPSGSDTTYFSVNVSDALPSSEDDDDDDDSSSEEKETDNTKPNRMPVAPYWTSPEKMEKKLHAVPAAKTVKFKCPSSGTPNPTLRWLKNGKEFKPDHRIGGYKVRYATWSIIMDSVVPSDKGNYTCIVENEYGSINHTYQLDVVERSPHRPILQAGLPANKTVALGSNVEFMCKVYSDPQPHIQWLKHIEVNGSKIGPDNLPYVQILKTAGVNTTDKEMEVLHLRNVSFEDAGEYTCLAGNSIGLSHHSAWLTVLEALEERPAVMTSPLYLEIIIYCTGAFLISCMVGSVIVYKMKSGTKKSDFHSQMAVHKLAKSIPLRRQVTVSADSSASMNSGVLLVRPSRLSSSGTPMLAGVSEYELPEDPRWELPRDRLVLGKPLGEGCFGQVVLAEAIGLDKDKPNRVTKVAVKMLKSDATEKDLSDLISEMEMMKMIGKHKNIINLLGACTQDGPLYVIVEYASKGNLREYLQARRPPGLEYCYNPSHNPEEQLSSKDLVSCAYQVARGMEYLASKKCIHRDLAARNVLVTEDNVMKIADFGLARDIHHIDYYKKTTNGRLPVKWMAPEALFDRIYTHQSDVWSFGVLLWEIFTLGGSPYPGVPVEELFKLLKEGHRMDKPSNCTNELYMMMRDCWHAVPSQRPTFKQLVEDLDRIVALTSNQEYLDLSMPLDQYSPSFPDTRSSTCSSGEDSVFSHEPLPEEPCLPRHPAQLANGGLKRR

[5] = biological target: FGFR3 (UniProt P22607); assay: as above
Chain of FGFR3 (P22607 whole entry, looked up): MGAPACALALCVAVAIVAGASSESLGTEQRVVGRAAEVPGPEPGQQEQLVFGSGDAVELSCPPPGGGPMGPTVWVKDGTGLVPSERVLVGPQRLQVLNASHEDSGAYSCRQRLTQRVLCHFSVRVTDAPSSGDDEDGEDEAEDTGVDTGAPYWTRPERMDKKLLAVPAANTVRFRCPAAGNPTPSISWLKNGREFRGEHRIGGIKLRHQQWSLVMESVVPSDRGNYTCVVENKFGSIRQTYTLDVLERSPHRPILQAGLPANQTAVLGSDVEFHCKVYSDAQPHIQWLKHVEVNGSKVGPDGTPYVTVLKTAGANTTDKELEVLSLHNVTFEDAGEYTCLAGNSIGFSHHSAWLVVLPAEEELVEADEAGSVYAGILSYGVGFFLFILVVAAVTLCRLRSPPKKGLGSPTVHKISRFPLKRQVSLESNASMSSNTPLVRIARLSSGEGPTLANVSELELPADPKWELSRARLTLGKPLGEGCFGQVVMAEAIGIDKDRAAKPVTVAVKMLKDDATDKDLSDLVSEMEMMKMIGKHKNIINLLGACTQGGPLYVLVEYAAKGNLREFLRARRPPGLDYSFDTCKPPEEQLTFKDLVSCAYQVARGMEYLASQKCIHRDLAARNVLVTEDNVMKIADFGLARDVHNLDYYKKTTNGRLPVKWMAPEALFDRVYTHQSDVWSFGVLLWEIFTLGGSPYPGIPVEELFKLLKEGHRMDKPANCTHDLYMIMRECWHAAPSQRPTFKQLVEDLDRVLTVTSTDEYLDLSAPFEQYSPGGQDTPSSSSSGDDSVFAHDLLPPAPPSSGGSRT

[6] = system: Fer (mouse); assay: as above
[7] = biological target: Fes (UniProt P07332); assay: as above
Chain of Fes (P07332 whole entry, looked up): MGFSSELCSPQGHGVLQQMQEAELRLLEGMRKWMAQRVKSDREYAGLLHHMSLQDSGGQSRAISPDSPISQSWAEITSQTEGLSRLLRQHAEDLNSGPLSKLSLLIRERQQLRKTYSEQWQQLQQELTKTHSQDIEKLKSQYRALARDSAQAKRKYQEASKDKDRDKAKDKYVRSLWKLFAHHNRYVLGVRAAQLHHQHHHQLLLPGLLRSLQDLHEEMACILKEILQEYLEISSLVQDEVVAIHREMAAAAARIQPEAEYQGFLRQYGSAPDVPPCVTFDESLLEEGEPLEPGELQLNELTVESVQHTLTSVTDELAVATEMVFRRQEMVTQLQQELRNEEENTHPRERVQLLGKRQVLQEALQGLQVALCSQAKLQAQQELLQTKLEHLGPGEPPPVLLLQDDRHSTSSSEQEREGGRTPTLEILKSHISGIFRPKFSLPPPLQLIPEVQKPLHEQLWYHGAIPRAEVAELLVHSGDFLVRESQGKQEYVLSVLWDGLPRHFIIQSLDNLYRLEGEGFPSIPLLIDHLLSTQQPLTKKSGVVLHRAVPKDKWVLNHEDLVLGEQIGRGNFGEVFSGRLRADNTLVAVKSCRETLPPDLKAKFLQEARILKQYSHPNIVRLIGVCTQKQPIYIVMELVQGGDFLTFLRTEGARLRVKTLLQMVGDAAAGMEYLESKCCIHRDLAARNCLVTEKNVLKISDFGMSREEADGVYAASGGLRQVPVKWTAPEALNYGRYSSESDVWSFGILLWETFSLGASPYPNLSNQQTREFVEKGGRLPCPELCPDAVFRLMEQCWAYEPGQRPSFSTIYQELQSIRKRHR

[8] = biological target: Fyn (UniProt P06241); assay: as above
[9] = biological target: Hck (UniProt P08631); assay: as above
Chain of Hck (P08631 whole entry, looked up): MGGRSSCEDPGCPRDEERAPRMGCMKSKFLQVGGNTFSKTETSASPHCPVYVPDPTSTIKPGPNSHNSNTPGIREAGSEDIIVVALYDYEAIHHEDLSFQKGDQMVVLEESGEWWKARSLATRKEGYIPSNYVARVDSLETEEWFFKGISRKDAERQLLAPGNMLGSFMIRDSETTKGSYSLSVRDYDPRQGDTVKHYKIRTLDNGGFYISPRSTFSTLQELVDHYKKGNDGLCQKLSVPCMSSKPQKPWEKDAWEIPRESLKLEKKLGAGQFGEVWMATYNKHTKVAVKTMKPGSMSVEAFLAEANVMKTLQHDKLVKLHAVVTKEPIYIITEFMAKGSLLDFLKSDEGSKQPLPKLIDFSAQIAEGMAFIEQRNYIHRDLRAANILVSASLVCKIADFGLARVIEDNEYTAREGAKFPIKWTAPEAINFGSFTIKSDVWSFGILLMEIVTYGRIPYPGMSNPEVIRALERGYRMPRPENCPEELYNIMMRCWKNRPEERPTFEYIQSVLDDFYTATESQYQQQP

[10] = biological target: Jak2 (UniProt O60674); assay: as above
[11] = biological target: MERTK (UniProt Q12866); assay: as above
[12] = system: c-Abl (mouse); assay: as above
[13] = system: c-Src; assay: as above
[14] = biological target: Grb2 SH2 (UniProt P62993); assay: SH2 binding enrichment of the phosphorylated peptide, bacterial display (enrichment ratio); higher = better substrate or ligand; peptides without Tyr show the background
[15] = biological target: SHP2-C SH2; assay: as above
[16] = biological target: c-Src SH2; assay: as above
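For SH2 binding enrichment of the phosphorylated peptide, bacterial display in this document: peptide library displayed on the E. coli surface as eCPX fusions, selected cells deep-sequenced, score is each peptide's frequency after selection divided by its frequency in the input.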
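For phosphorylation enrichment, bacterial display in this document: 11-residue human phosphosite peptides and single-mutation variants displayed on the E. coli surface, counted by deep sequencing, each peptide's frequency after selection divided by its frequency in the unselected input library; frequency after pTyr selection over input frequency; kinase dosed for 20-30% of maximal phosphorylation in three min.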

Chain of EPHB1 (P54762 whole entry, looked up): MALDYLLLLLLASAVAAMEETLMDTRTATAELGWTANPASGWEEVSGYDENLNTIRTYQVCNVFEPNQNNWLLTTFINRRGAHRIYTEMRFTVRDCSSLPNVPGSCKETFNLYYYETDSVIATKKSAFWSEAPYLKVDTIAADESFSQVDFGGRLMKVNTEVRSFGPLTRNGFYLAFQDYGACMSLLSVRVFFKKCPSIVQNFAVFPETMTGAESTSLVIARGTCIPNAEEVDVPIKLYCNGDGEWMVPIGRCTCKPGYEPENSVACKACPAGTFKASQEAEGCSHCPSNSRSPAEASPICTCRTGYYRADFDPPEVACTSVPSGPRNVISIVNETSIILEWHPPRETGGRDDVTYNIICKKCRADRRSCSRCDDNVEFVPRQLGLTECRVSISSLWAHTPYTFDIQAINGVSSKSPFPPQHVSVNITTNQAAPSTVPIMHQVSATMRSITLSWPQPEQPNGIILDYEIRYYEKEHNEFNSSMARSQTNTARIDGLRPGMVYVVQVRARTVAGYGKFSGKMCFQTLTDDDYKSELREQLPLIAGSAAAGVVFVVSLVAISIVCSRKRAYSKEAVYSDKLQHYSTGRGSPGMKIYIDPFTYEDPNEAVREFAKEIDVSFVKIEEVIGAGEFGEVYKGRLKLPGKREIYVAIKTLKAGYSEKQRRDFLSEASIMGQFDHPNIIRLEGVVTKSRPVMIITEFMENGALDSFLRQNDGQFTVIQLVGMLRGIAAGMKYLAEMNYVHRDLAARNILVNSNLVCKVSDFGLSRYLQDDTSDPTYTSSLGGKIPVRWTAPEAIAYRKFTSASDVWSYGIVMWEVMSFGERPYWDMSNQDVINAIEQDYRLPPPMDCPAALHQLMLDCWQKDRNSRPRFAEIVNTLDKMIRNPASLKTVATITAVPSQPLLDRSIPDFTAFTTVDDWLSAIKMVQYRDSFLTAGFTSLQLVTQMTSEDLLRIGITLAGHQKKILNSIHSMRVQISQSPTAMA
Chain of EPHB2 (P29323 whole entry, looked up): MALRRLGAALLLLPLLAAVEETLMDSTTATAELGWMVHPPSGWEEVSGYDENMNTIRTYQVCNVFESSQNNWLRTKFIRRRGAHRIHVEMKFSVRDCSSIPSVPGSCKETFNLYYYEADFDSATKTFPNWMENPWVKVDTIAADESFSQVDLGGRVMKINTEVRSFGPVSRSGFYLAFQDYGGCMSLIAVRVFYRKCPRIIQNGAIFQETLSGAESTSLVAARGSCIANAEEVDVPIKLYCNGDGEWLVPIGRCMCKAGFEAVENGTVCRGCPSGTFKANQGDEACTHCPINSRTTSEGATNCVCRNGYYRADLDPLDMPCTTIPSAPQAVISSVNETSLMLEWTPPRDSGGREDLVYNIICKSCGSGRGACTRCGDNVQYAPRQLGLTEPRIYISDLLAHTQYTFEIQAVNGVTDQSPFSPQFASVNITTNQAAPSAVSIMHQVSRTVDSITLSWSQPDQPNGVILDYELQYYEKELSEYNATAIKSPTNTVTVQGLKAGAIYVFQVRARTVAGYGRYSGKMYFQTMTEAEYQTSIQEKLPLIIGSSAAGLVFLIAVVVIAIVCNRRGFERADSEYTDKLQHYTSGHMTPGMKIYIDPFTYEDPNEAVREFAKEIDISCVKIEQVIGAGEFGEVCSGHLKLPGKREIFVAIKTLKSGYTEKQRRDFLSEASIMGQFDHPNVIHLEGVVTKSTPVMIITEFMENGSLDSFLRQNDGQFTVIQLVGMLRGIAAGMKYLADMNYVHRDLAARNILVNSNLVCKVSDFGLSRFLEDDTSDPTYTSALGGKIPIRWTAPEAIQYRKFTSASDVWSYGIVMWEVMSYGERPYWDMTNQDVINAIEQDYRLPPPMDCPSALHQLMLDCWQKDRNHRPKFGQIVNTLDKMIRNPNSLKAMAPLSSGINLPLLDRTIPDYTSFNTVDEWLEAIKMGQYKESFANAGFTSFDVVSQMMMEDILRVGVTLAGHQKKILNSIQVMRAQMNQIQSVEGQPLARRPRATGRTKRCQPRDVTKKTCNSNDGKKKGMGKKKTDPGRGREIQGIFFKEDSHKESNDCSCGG

Row | SH2 binding enrichment [14] | SH2 binding enrichment [15] | SH2 binding enrichment [16] | Sequence | phosphorylation enrichment [1] | phosphorylation enrichment [2] | phosphorylation enrichment [3] | phosphorylation enrichment [4] | phosphorylation enrichment [5] | phosphorylation enrichment [6] | phosphorylation enrichment [7] | phosphorylation enrichment [8] | phosphorylation enrichment [9] | phosphorylation enrichment [10] | phosphorylation enrichment [11] | phosphorylation enrichment [12] | phosphorylation enrichment [13]
1 | 1.29 | 0.993 | 1.16 | RSHRSYSCQVM [IGLL1_Y192_R189H] | 0.609 | 0.696 | 0.512 | 0.637 | 0.671 | 0.416 | 0.941 | 0.508 | 0.559 | 0.57 | 0.526 | 0.594 | 0.604
2 | 0.665 | 0.633 | 0.409 | RTEAQYRFIFM [PTPN11_Y511_Q506R_YF] | 1.37 | 0.52 | 0.576 | 0.512 | 1.03 | 0.546 | 1.23 | 0.312 | 0.398 | 1.14 | 0.413 | 0.765 | 0.445
3 | 0.702 | 0.642 | 0.392 | RTEAQYRFIYM [PTPN11_Y511_Q506R] | 1.2 | 0.724 | 0.9 | 0.683 | 1.1 | 0.794 | 1.72 | 0.423 | 0.635 | 1.5 | 0.691 | 1.44 | 0.754
4 | 0.836 | 0.925 | 1.03 | RVVVPYEPPEV [TP53_Y220_S215R] | 1.01 | 0.523 | 0.505 | 0.631 | 0.657 | 0.409 | 0.99 | 0.554 | 0.454 | 0.892 | 0.468 | 0.613 | 0.36
5 | 0.874 | 0.618 | 0.477 | SAEEDYKADAK [KCNT1_Y876_M877K] | 1.18 | 0.635 | 0.502 | 0.464 | 0.684 | 0.465 | 1.28 | 0.534 | 0.536 | 1.07 | 0.497 | 0.831 | 0.513
6 | 0.66 | 0.554 | 0.537 | SAGSSYSISSI [PAX5_Y179_G183S] | 0.65 | 0.41 | 0.451 | 0.368 | 0.533 | 0.385 | 0.686 | 0.434 | 0.431 | 0.697 | 0.492 | 0.583 | 0.42
7 | 0.952 | 0.508 | 0.543 | SARFRYLMAEK [LDHB_Y173] | 0.695 | 0.436 | 0.467 | 0.352 | 0.469 | 0.348 | 0.652 | 0.365 | 0.435 | 0.692 | 0.397 | 0.566 | 0.436
8 | 0.988 | 1.21 | 0.589 | SFLFRYADDSF [RAB3C_Y50] | 1.01 | 0.545 | 0.515 | 0.475 | 0.582 | 0.414 | 1.01 | 0.45 | 0.525 | 0.835 | 0.45 | 0.582 | 0.434

The remaining lines, values behind:

Row | Sequence | SH2 binding enrichment [14] | SH2 binding enrichment [15] | SH2 binding enrichment [16] | phosphorylation enrichment [1] | phosphorylation enrichment [2] | phosphorylation enrichment [3] | phosphorylation enrichment [4] | phosphorylation enrichment [5] | phosphorylation enrichment [6] | phosphorylation enrichment [7] | phosphorylation enrichment [8] | phosphorylation enrichment [9] | phosphorylation enrichment [10] | phosphorylation enrichment [11] | phosphorylation enrichment [12] | phosphorylation enrichment [13]
9 | RTTIHYNYMCN [TP53_Y234_C229R] | 0.8 | 0.603 | 0.994 | 1.81 | 1.48 | 1.13 | 0.892 | 1.6 | 1.25 | 2.24 | 1.16 | 1.11 | 1.57 | 0.901 | 1.2 | 0.649
10 | RTVPLYESPRK [DDB1_Y718] | 0.898 | 1.01 | 0.57 | 1.31 | 20.7 | 26.6 | 0.374 | 0.577 | 16 | 1.77 | 3.13 | 10.5 | 0.833 | 7.82 | 26 | 3.79
11 | SADIAYNYRHG [PAH_Y166_F161S] | 0.817 | 0.699 | 0.445 | 0.488 | 0.333 | 0.378 | 0.362 | 0.391 | 0.469 | 0.498 | 0.345 | 0.344 | 0.435 | 0.329 | 0.508 | 0.388
12 | SDPIVYTLENI [EMR1_Y534_I533V] | 0.768 | 0.709 | 0.563 | 1.09 | 0.465 | 0.523 | 0.553 | 0.755 | 2.35 | 1.69 | 4.76 | 0.676 | 1.2 | 0.546 | 0.873 | 4.06
13 | SEHLTYLEFKS [RASGRP1_Y215] | 0.716 | 0.52 | 0.409 | 1.41 | 1.02 | 0.838 | 0.729 | 1.16 | 0.62 | 1.58 | 6.61 | 5.7 | 1.33 | 0.459 | 1.09 | 5.56
14 | SERNNYSRVAN [CWC22_Y797] | 0.747 | 5.32 | 1.46 | 0.501 | 0.503 | 0.59 | 0.435 | 0.456 | 0.422 | 0.557 | 0.347 | 0.382 | 0.461 | 0.391 | 0.51 | 0.356
